In patent US20220195063A1 (BYONDIS B V, published 2022):
Values belong to the molecule of their own block, whether it stands above or below them.

Key:
human SIRPγ (huSIRPγ) [1] = molecular target: T1, human SIRPγ (huSIRPγ) (human, UniProt Q9P1W8 29-360, limits assumed, biotinylated in the SPR assay); assay: SPR, biotinylated antigen captured, 25 C
T1 construct: Coated on the plate in ELISA, biotinylated and captured in SPR
Procedure: (§1) Surface Plasmon Resonance (SPR) assay: Affinity analysis was performed by single cycle kinetics analysis on a Surface Plasmon Resonance apparatus (Biacore T200 system, GE Life Sciences) at 25° C. Biotinylated SIRP antigens were captured on the surface of a chip suitable for biotinylated molecules (Sensor Chip CAP, GE Life Sciences) by injecting 5 μg/ml of the SIRP antigen in running buffer (10 mM HEPES buffer at pH 7.4 with 150 mM NaCl, 3 mM EDTA and 0.005% v/v polyoxyethylene (20) sorbitan monolaurate (Surfactant P20) for 60 sec at 10 μL/min after injection of a streptavidin conjugate (20× diluted biotin CAPture reagent, GE Life Sciences) for 60 sec at 10 μl/min. Baseline stabilization was set at 1 min after which five increasing concentrations of an anti-SIRP antibody in running buffer (10 mM HEPES buffer at pH 7.4 with 150 mM NaCl, 3 mM EDTA and 0.005% v/v polyoxyethylene (20) sorbitan monolaurate) were injected. For each step an association time of 150 sec was used, followed by a dissociation time of 1200 sec at the highest concentration only, all at a flow rate of 30 μL/min. Regeneration was performed with 6 M guanidine-HCl, 0.25 M NaOH solution (60 sec with flow rate of 30 μL/min). Double blank subtraction was performed on the observed sensorgrams using a non anti-SIRP (blank) immobilized reference flow channel and running buffer injection. Sensorgrams were fitted with a 1:1 Langmuir model for all tested anti-SIRP antibodies. The kinetic parameters (kₐ, kd and KD) were calculated using the Biacore T200 evaluation software (v3.1).

[2] = molecular target: T2, human SIRPα1 (huSIRPα1), protein antigen (human, UniProt P78324 31-370, limits assumed, biotinylated in the SPR assay); assay: SPR, biotinylated antigen captured, 25 C
T2 construct: Coated on the plate in ELISA, biotinylated and captured in SPR; also called v2
Procedure: as §1

[3] = molecular target: human SIRPαBIT (huSIRPαBIT), protein antigen (human) (UniProt P78324); assay: SPR, biotinylated antigen captured, 25 C
[4] = molecular target: T3, cynomolgus SIRPα (cySIRPα), protein antigen (cynomolgus monkey, UniProt A0A2K5VYQ9 31-369); assay: ELISA, antigen coated
T3 construct: Coated on the plate in ELISA
T3 sequence: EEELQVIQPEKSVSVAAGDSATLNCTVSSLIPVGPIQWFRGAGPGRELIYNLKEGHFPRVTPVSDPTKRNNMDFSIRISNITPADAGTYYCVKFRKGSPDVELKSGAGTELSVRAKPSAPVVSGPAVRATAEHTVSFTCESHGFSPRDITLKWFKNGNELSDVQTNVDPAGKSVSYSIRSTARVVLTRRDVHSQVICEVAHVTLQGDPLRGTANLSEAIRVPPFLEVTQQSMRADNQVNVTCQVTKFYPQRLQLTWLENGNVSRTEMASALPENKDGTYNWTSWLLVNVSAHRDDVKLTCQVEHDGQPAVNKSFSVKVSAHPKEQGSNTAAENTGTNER
Procedure: (§2) ELISA assay: Solutions of huSIRPα₁, huSIRPαBIT, huSIRPβ₁ᵥ₁, huSIRPβ₁ᵥ₂, huSIRPγ and cySIRPα in phosphate buffered saline (PBS) were each added to a multiple well black polystyrene plate for ELISA and allowed to adhere for 1 h at RT. Unbound protein was removed with three washing steps using standard washing buffer. Subsequently, blocking buffer was added to the wells. After 1 h incubation at RT, the wells were washed three times with standard washing buffer. The antibodies in buffer at various concentrations were added to the wells and incubated at RT for 1 h. Unbound antibodies were removed with three washing steps using standard washing buffer. Goat anti human IgG (Fab′)₂:horse radish peroxidase (HRP) in buffer was added to the wells and incubated at RT for 1 h. 3,3′,5,5′-Tetramethylbenzidine (TMB) was added and after sufficient colour development HCl was added. Absorbance was read at 450 nm/620 nm.

human SIRPγ (huSIRPγ) [5] = molecular target: T1, human SIRPγ (huSIRPγ); assay: ELISA, antigen coated
Procedure: as §2

[6] = molecular target: T2, human SIRPα1 (huSIRPα1), protein antigen; assay: ELISA, antigen coated
Procedure: as §2

[7] = molecular target: T4, human SIRPβ1v2 (huSIRPβ1v2) (human, UniProt Q5TFQ8 30-371); assay: ELISA, antigen coated
T4 construct: Coated on the plate in ELISA; Only the Ensembl protein number is printed; also called huSIRPß1v2
Procedure: as §2

[8] = molecular target: human SIRPαBIT expressed on cells (human) (UniProt P78324); assay: flow cytometry, ExpiCHO-S cells
[9] = molecular target: human SIRPαBIT expressed on cells (human) (UniProt P78324); assay: flow cytometry, U937 cells
[10] = molecular target: T5, human SIRPα1 expressed on cells (human, UniProt P78324 31-504); assay: flow cytometry, ExpiCHO-S cells
T5 construct: whole, on cells; also called ExpiCHO-S (huSIRPα1); CHO cells expressing huSIRPα1
Text: (§3) Flow Cytometry: U937 cells endogenously expressing human SIRPαBIT antigen and cells derived from a non-engineered subclone that has been screened and isolated from CHO-S Chinese hamster ovary cells (ExpiCHO-S) cells expressing human SIRPα₁, SIRPαBIT or cySIRPα antigen (100,000 cells/well in a 96-well plate) were washed three times with ice-cold FACS buffer (1×PBS (LONZA) containing 0.2% v/w BSA (Sigma-Aldrich, St. Louis, Mo.) and 0.02% v/w NaN₃ (Sigma-Aldrich), followed by the addition of a concentration range of each primary mAb (50 μL/well) diluted in ice-cold FACS buffer. After an incubation time of 30 min at 4° C., the cells were washed three times with ice-cold FACS buffer and 50 μL/well secondary mAb (AffiniPure F(ab′)₂ fragment Goat-anti-human IgG-APC, 1:6,000 dilution, Jackson Immuno Research) was added. After 30 min at 4° C., cells were washed twice and resuspended in 150 μL FACS buffer. Fluorescence intensities were determined by flow cytometry (BD FACSVerse, Franklin Lakes, N.J.) and indicated as the median fluorescence intensity (MFI-Median) for U937 cells and ExpiCHO-S cells. Curves were fitted by nonlinear regression using the sigmoidal dose-response equation with variable slope (four parameters) in GraphPad Prism (version 7.02 for Windows, GraphPad, San Diego, Calif.). EC₅₀ values were calculated as the concentration in μg/mL that gives a response half way between bottom and top of the curve, when using a 4-parameter logistic fit.

[11] = molecular target: T6, cynomolgus SIRPα expressed on cells (cynomolgus monkey, UniProt A0A2K5VYQ9 31-507); assay: flow cytometry, ExpiCHO-S cells
T6 construct: whole, on cells; also called ExpiCHO-S (cySIRPα)
T6 sequence: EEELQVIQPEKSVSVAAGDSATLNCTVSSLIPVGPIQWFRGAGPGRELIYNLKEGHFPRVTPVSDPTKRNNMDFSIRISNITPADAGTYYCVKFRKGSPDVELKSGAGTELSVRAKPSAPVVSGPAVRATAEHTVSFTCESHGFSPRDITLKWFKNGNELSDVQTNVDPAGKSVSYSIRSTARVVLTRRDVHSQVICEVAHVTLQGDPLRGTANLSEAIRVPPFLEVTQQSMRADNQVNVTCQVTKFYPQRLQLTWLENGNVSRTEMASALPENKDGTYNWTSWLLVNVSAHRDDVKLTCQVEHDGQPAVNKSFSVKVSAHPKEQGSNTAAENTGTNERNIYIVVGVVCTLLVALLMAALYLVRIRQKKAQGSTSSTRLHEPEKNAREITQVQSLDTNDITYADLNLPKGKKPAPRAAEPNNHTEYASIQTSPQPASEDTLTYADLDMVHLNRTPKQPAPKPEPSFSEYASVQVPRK
Text: as §3

[12] = molecular target: human SIRPβ1v1 (huSIRPβ1v1) (human) (UniProt O00241); assay: ELISA, antigen coated
[13] = molecular target: human SIRPαBIT (huSIRPαBIT), protein antigen (human) (UniProt P78324); assay: ELISA, antigen coated

T5 sequence (P78324 other isoform, or with tags, fused parts or gaps limits assumed): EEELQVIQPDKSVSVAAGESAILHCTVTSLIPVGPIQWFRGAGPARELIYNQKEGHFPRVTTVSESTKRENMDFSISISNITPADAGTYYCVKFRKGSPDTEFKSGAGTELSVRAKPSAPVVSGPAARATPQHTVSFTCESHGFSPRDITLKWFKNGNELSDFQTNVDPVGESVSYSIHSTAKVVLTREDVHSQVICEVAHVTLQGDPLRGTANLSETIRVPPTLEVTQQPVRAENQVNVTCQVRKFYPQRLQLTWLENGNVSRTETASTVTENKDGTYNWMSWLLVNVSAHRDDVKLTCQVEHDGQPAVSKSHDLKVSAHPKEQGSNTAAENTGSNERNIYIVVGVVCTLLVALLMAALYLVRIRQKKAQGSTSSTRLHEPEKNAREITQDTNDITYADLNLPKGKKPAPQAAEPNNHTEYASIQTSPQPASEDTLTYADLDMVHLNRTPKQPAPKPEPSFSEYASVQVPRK
T1 sequence (Q9P1W8 29-360 limits assumed): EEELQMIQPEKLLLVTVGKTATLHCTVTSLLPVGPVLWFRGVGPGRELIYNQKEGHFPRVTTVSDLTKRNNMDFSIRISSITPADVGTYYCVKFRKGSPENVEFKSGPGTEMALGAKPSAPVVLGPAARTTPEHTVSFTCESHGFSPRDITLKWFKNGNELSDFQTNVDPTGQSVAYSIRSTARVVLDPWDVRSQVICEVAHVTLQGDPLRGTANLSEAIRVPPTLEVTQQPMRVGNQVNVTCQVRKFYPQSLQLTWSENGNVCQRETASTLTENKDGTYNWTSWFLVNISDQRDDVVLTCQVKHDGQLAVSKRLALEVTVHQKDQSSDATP
T2 sequence (P78324 other isoform, or with tags, fused parts or gaps limits assumed): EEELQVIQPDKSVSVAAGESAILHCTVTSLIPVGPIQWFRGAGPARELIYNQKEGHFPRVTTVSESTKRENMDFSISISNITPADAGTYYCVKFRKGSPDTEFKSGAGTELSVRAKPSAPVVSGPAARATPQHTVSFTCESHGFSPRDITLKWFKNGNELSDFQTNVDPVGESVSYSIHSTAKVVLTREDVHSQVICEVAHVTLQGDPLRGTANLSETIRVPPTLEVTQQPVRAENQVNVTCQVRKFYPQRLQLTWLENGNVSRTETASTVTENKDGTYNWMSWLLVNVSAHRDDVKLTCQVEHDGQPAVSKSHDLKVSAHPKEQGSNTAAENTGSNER
human SIRPαBIT (huSIRPαBIT), protein antigen (human), sequence (P78324 31-370): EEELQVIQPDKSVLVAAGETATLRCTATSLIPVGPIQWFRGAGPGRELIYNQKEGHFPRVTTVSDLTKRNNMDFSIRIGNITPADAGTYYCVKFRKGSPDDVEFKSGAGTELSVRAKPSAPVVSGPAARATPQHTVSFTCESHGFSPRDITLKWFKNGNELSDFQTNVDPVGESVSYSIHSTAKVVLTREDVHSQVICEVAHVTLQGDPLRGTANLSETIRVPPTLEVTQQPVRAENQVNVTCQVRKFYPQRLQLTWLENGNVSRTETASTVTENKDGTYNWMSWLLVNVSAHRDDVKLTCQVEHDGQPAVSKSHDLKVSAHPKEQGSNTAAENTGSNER
human SIRPαBIT expressed on cells (human), sequence (P78324 31-504): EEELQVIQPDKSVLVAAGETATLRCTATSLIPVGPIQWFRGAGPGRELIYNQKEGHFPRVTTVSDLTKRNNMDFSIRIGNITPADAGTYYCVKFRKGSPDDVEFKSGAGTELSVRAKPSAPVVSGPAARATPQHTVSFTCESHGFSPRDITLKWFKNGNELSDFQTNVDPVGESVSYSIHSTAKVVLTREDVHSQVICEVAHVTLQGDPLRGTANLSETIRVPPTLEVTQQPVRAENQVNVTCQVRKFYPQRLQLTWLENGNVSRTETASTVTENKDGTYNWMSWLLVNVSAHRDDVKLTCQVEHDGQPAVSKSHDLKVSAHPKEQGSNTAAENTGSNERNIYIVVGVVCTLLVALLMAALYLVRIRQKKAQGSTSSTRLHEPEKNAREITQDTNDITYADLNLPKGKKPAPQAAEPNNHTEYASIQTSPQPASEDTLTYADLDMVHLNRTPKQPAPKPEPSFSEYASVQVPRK
human SIRPβ1v1 (huSIRPβ1v1) (human), sequence (O00241 30-371): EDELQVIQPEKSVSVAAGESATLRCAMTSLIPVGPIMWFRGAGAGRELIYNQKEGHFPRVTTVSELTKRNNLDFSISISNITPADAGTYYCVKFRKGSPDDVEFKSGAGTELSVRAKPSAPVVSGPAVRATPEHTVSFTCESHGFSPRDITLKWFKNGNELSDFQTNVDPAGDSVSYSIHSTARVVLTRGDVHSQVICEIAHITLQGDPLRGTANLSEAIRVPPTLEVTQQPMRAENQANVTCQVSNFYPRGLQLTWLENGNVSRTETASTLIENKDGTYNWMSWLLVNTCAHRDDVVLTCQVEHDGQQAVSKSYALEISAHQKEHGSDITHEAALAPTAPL
T4 sequence (Q5TFQ8 30-371 limits assumed): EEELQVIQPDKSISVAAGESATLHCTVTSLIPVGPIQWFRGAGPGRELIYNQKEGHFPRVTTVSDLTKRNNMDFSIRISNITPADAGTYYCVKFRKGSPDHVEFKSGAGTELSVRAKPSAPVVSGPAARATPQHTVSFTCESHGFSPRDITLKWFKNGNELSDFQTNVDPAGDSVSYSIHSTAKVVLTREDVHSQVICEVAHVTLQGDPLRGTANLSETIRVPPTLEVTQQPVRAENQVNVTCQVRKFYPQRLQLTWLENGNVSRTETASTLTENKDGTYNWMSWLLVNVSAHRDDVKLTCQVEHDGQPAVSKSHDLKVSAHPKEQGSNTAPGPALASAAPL

Kd (human SIRPγ (huSIRPγ) [1]): 49 nM
Kd [2]: 2.2 nM
Kd [3]: 2.6 nM
Molecule: SE5A5 (antibody)

EC50 [4]: 0.026 µg/mL
EC50 (human SIRPγ (huSIRPγ) [5]): > 100 µg/mL
EC50 [6]: 0.019 µg/mL
EC50 [7]: 0.019 µg/mL
EC50 [8]: 0.18 µg/mL
EC50 [9]: 0.12 µg/mL
EC50 [10]: 0.22 µg/mL
EC50 [11]: 0.15 µg/mL
EC50 [12]: > 100 µg/mL
EC50 [13]: 0.02 µg/mL
B1: anti-SIRPα antibody 8 (antibody, human IgG1, kappa, L234A L235A, V domains shown)
VH: QSLEESGGRLVTPGTPLTLTCTASGVDLSNYAMGWVRQAPGKGLEWIGIIYAGGSTSYATWAKGRFTISKTSTTMDLKMTSPTTEDTATYFCARHRSDGYDYFHLWGPGTLVTVSL
VL: AIDMTQTPASVSEPVGGTVTIKCQASQSISSWLAWYQQKPGQRPKLLIYDASKLASGVPSRFSGSGSGTEFTLTISGVQSDDAAAYYCQQGYAVSYVENIFGGGTEVVVKR
notes: Rabbit variable regions on human IgG1 LALA / kappa

EC50 [4]: 0.005 µg/mL
EC50 (human SIRPγ (huSIRPγ) [5]): 0.006 µg/mL
EC50 [6]: 0.007 µg/mL
EC50 [7]: 0.006 µg/mL
Kd (human SIRPγ (huSIRPγ) [1]): 0.016 nM
Kd [2]: 0.087 nM
EC50 [9]: 0.19 µg/mL
Kd [3]: 0.015 nM
EC50 [12]: 0.008 µg/mL
EC50 [13]: 0.005 µg/mL
B2: 12C4huIgG1LALA (antibody, V domains shown)
VH: EVKLEESGGGLMQPGGSMKLSCVASGFTFSNYWMNWVRQSPEKGLEWVAEIRLKSNNYATHYAESVKGRFTISRDDSKSSVYLQMNNLRAEDTGIYYCIRDYDYDAYFDYWGQGTTLTVSS
VL: DIVLTQSPASLAVSLGQRATISCRASKSVSTSGYNYMYWYQQKPGQPPKLLIYLASNLESGVPARFSGSGSGTDFTLNIHPVEEEDAATYYCQHSGELPYTFGGGTKLEIKR
notes: HAVT20 leader left out; also called 12C4LALA; huIgG112C4LALA

EC50 [4]: 0.038 µg/mL
EC50 (human SIRPγ (huSIRPγ) [5]): > 100 µg/mL
EC50 [6]: 0.033 µg/mL
EC50 [7]: 0.028 µg/mL
EC50 [8]: 0.27 µg/mL
EC50 [9]: 0.14 µg/mL
EC50 [10]: 0.19 µg/mL
EC50 [11]: 0.16 µg/mL
EC50 [12]: > 100 µg/mL
EC50 [13]: 0.027 µg/mL
B3: anti-SIRPα antibody 2 (antibody, human IgG1, kappa, L234A L235A, V domains shown)
VH: QSVEESGGRLVTPGTPLTLTCTVSGFSLSNYAMHWVRQAPGKGLEWIGIIYTGGATSYATWAKGQFTISKTSTTVDLKITSPTTEDTATYFCARGDRDGYAYFNIWGPGTLVTVSL
VL: QIVMTQTPFSVSAVVGGTVTIKCQASHNIGSWLAWYQQKPGQRPKLLIYDASTLASGVSSRFKGSGSGTEFTLTISGVESADAATYYCQQGYGISYVHNVFGGGTEVVVKR
notes: as for B1

EC50 [4]: 0.335 µg/mL
EC50 (human SIRPγ (huSIRPγ) [5]): > 100 µg/mL
EC50 [7]: > 100 µg/mL
EC50 [8]: 0.21 µg/mL
EC50 [9]: 0.17 µg/mL
Kd [3]: < 0.01 nM
EC50 [11]: 0.07 µg/mL
EC50 [12]: 0.014 µg/mL
EC50 [13]: 0.02 µg/mL
B4: anti-SIRPα antibody 7 (antibody, human IgG1, kappa, L234A L235A, V domains shown)
VH: RSVEESGGRLVTPGTPLTLTCTVSGFSLSSHGISWVRQAPGKGLEYIGTIGTGVITYFASWAKGRFTGSKTSTTVDLKITSPTTEDTATYFCARGSAWNDPFDPWGPGTLVTVSS
VL: ALVMTQTPASVSAAVGGTVTTKCQASQSVYGNNDLAWYQHKPGQPPKLLIYLASTLATGVPSRFSGSGSGTQFTLTITGVQSDDAATYYCLGGGDDEADNVFGGGTEVVVKR
notes: Chimeric: rabbit variable regions on human IgG1 LALA / kappa; also called chimeric antibody 7

Kd (human SIRPγ (huSIRPγ) [1]): < 0.01 nM
Kd [2]: 0.011 nM
EC50 [9]: 0.09 µg/mL
Kd [3]: < 0.01 nM
B5: KWAR23 huIgG1LALA (antibody, V domains shown)
VH: EVQLQQSGAELVKPGASVKLSCTASGFNIKDYYIHWVQQRTEQGLEWIGRIDPEDGETKYAPKFQDKATITADTSSNTAYLHLSSLTSEDTAVYYCARWGAYWGQGTLVTVSS
VL: QIVLTQSPAIMSASPGEKVTLTCSASSSVSSSYLYWYQQKPGSSPKLWIYSTSNLASGVPARFSGSGSGTSYSLTISSMEAEDAASYFCHQWSSYPRTFGAGTKLELK

Kd (human SIRPγ (huSIRPγ) [1]): < 0.01 nM
Kd [2]: < 0.01 nM
Kd [3]: < 0.01 nM
B6: KWAR23 mouse IgG2a (antibody, V domains shown)
VH: B5 VH
VL: B5 VL

EC50 [4]: 0.123 µg/mL
EC50 (human SIRPγ (huSIRPγ) [5]): > 100 µg/mL
EC50 [6]: 0.031 µg/mL
EC50 [7]: 0.11 µg/mL
EC50 [8]: 0.22 µg/mL
EC50 [9]: 0.16 µg/mL
EC50 [10]: 0.27 µg/mL
EC50 [11]: 0.26 µg/mL
EC50 [12]: 3.52 µg/mL
EC50 [13]: 0.021 µg/mL
B7: anti-SIRPα antibody 5 (antibody, human IgG1, kappa, L234A L235A, V domains shown)
VH: QSVEESGGRLVTPGTPLTLTCTVSGFSLSSYVMGWFRQAAGKGLEYIGYINADGSPYYATWVNGRFTISKTPTTMDLKINSPTTEDTATYFCARVGPLGVDYFNIWGPGTLVTVSL
VL: DIVMTQTPASVEAAVGGTVTIKCQASQSINRYLTWYQQKPGQRPKLLIYYASTLESGVPSRFEGSGSGTDYTLTISDLESADAATYYCQSYYYISRTYAFGGGTEVVVKR
notes: as for B1
